This note sets out measurements from patent publication US20190276511A1 (BIONTECH RNA PHARMACEUTICALS, published 2019).

Assay [1] deals with T1, CD40-Fc (human, UniProt P25942 21-193).
T1 construct: extracellular domain; hinge included for covalent assembly; also called CD40 receptor-Fc fusion protein; not shown: human Fc gamma 1 region including the hinge region
As to the kind of experiment: ELISA, coated receptor-Fc. A general note: ELISA stands for enzyme-linked immunosorbent assay.

Assay [2] concerns the target T2, OX40-Fc (human, UniProt P43489 29-214).
T2 construct: extracellular domain; hinge included for covalent assembly; also called OX40 receptor-Fc fusion protein; not shown: human Fc gamma 1 region including the hinge region
T2 sequence (looked up): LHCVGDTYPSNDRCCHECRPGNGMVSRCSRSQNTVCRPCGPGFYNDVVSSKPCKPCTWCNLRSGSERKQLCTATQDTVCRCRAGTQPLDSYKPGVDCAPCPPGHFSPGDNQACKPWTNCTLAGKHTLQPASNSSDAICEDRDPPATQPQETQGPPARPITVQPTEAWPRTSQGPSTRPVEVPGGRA
Nature of the assay: ELISA, coated receptor-Fc.

In a further assay the target is 4-1BB receptor on cells (human, UniProt Q07011 24-255). As to the kind of experiment: cell-based or functional assay.
Assay [3] deals with T3, CD27-Fc (human, UniProt P26842 20-191).
T3 construct: extracellular domain; hinge included for covalent assembly; also called CD27 receptor-Fc fusion protein; not shown: human Fc gamma 1 region including the hinge region
T3 sequence (looked up): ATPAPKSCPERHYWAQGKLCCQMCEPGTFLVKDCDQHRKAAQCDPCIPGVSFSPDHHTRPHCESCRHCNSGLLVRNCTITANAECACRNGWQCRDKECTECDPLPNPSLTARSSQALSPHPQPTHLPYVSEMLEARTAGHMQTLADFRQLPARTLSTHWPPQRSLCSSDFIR
Nature of the assay: ELISA, coated receptor-Fc.

The next assay addresses T4, 4-1BB-Fc (human, UniProt Q07011 24-186).
T4 construct: extracellular domain; hinge included for covalent assembly; also called 4-1BB receptor-Fc fusion protein; not shown: human Fc gamma 1 region including the hinge region
As to the kind of experiment: ELISA, coated receptor-Fc.

Assay [4] deals with T3, CD27-Fc. As to the kind of experiment: ELISA, coated receptor-Fc. This is another data set of the same source.
The next assay concerns the target CD40 receptor on cells (human, UniProt P25942 21-277). Nature of the assay: cell-based or functional assay.
The target in assay [5] is T1, CD40-Fc. As to the kind of experiment: ELISA, coated receptor-Fc. This is another data set of the same source.
Another assay has as its target T5, OX40 receptor on cells (human, UniProt P43489 29-277).
T5 sequence (looked up): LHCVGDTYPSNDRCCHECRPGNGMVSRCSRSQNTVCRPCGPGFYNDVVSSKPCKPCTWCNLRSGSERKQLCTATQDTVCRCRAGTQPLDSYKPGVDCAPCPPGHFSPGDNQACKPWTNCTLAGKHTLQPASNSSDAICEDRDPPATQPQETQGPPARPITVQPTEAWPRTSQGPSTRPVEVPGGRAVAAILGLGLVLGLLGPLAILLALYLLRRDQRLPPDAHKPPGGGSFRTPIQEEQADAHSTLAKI
As to the kind of experiment: cell-based or functional assay.

The target of assay [6] is T2, OX40-Fc. Nature of the assay: ELISA, coated receptor-Fc. The source holds these as a separate data set.

Chain of 4-1BB receptor on cells (Q07011 24-255): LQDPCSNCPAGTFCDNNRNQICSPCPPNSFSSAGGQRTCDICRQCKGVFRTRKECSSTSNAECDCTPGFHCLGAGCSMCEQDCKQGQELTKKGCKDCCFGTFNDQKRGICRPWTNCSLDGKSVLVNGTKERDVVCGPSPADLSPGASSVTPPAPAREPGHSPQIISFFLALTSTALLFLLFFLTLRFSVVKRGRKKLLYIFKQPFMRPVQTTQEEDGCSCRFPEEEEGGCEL
T1 sequence (P25942 21-193 limits assumed): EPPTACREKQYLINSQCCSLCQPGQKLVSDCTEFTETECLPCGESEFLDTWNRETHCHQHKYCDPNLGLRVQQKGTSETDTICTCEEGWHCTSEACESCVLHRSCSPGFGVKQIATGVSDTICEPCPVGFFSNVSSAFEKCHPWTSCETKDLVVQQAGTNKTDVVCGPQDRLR
Chain of CD40 receptor on cells (P25942 21-277): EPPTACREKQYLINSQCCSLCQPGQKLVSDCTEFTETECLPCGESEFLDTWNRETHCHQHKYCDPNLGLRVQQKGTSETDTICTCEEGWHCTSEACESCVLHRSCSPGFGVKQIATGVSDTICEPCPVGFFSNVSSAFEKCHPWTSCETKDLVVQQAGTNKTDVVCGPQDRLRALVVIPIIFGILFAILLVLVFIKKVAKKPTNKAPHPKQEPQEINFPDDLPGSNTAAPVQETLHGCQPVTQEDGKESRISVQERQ

B1: scCD27L-sc4-1BBL (ligand)
chain: SLGWDVAELQLNHTGPQQDPRLYWQGGPALGRSFLHGPELDKGQLRIHRDGIYMVHIQVTLAICSSTTASRHHPTTLAVGICSPASRSISLLRLSFHQGCTIASQRLTPLARGDTLCTNLTGTLLPSRNTDETFFGVQWVRPGGGSGGGSLGWDVAELQLNHTGPQQDPRLYWQGGPALGRSFLHGPELDKGQLRIHRDGIYMVHIQVTLAICSSTTASRHHPTTLAVGICSPASRSISLLRLSFHQGCTIASQRLTPLARGDTLCTNLTGTLLPSRNTDETFFGVQWVRPGGGSGGGSLGWDVAELQLNHTGPQQDPRLYWQGGPALGRSFLHGPELDKGQLRIHRDGIYMVHIQVTLAICSSTTASRHHPTTLAVGICSPASRSISLLRLSFHQGCTIASQRLTPLARGDTLCTNLTGTLLPSRNTDETFFGVQWVRPGGGGSGGGTGGGGSREGPELSPDDPAGLLDLRQGMFAQLVAQNVLLIDGPLSWYSDPGLAGVSLTGGLSYKEDTKELVVAKAGVYYVFFQLELRRVVAGEGSGSVSLALHLQPLRSAAGAAALALTVDLPPASSEARNSAFGFQGRLLHLSAGQRLGVHLHTEARARHAWQLTQGATVLGLFRVTPEIPAGLPSPRSEGGGGSGGGGSGGGGSREGPELSPDDPAGLLDLRQGMFAQLVAQNVLLIDGPLSWYSDPGLAGVSLTGGLSYKEDTKELVVAKAGVYYVFFQLELRRVVAGEGSGSVSLALHLQPLRSAAGAAALALTVDLPPASSEARNSAFGFQGRLLHLSAGQRLGVHLHTEARARHAWQLTQGATVLGLFRVTPEIPAGLPSPRSEGGGGSGGGGSGGGGSREGPELSPDDPAGLLDLRQGMFAQLVAQNVLLIDGPLSWYSDPGLAGVSLTGGLSYKEDTKELVVAKAGVYYVFFQLELRRVVAGEGSGSVSLALHLQPLRSAAGAAALALTVDLPPASSEARNSAFGFQGRLLHLSAGQRLGVHLHTEARARHAWQLTQGATVLGLFRVTPEIPAGLPSPRSE
notes: scDuokine from HEK293; VH leader left out; also called single-chain Duokine scCD27L-sc4-1BBL; not shown: N-terminal FLAG tag
A word on the EC50: it is the midpoint of the concentration-response curve. A high value points to lower potency in that assay. As for B1, the binding result in the assay with CD40-Fc [1] and with OX40-Fc [2] was “no binding (tested: 100 nM (FIG. 10))” throughout. Besides, the “Receptor activation (EC50, nM)” value in the assay with 4-1BB receptor on cells came out at 1.5 nM. Besides, the concentration for a half-maximal effect (EC50) is 9.23 nM with CD27-Fc [3] and 4.57 nM with 4-1BB-Fc.

B2: scCD40L-sc4-1BBL (ligand)
chain: GDQNPQIAAHVISEASSKTTSVLQWAEKGYYTMSNNLVTLENGKQLTVKRQGLYYIYAQVTFCSNREASSQAPFIASLCLKSPGRFERILLRAANTHSSAKPCGQQSIHLGGVFELQPGASVFVNVTDPSQVSHGTGFTSFGLLKLGGGSGGGGDQNPQIAAHVISEASSKTTSVLQWAEKGYYTMSNNLVTLENGKQLTVKRQGLYYIYAQVTFCSNREASSQAPFIASLCLKSPGRFERILLRAANTHSSAKPCGQQSIHLGGVFELQPGASVFVNVTDPSQVSHGTGFTSFGLLKLGGGSGGGGDQNPQIAAHVISEASSKTTSVLQWAEKGYYTMSNNLVTLENGKQLTVKRQGLYYIYAQVTFCSNREASSQAPFIASLCLKSPGRFERILLRAANTHSSAKPCGQQSIHLGGVFELQPGASVFVNVTDPSQVSHGTGFTSFGLLKLGGGGSGGGTGGGGSREGPELSPDDPAGLLDLRQGMFAQLVAQNVLLIDGPLSWYSDPGLAGVSLTGGLSYKEDTKELVVAKAGVYYVFFQLELRRVVAGEGSGSVSLALHLQPLRSAAGAAALALTVDLPPASSEARNSAFGFQGRLLHLSAGQRLGVHLHTEARARHAWQLTQGATVLGLFRVTPEIPAGLPSPRSEGGGGSGGGGSGGGGSREGPELSPDDPAGLLDLRQGMFAQLVAQNVLLIDGPLSWYSDPGLAGVSLTGGLSYKEDTKELVVAKAGVYYVFFQLELRRVVAGEGSGSVSLALHLQPLRSAAGAAALALTVDLPPASSEARNSAFGFQGRLLHLSAGQRLGVHLHTEARARHAWQLTQGATVLGLFRVTPEIPAGLPSPRSEGGGGSGGGGSGGGGSREGPELSPDDPAGLLDLRQGMFAQLVAQNVLLIDGPLSWYSDPGLAGVSLTGGLSYKEDTKELVVAKAGVYYVFFQLELRRVVAGEGSGSVSLALHLQPLRSAAGAAALALTVDLPPASSEARNSAFGFQGRLLHLSAGQRLGVHLHTEARARHAWQLTQGATVLGLFRVTPEIPAGLPSPRSE
notes: scDuokine from HEK293; VH leader left out; also called single-chain Duokine scCD40L-sc4-1BBL; not shown: N-terminal FLAG tag
Take B2: the binding result in the assay with CD27-Fc [4] and with OX40-Fc [2] was “no binding (tested: 100 nM (FIG. 10))” in each case. The figures for the “Receptor activation (EC50, nM)” value in the assay with CD40 receptor on cells and with 4-1BB receptor on cells were 5.23 nM and 0.26 nM, respectively. Besides, the concentration giving a half-maximal response (EC50) turned out to be 7.02 nM in the assay with CD40-Fc [5] and 3.17 nM with 4-1BB-Fc.

B3: scOX40L-sc4-1BBL (ligand)
chain: QVSHRYPRIQSIKVQFTEYKKEKGFILTSQKEDEIMKVQNNSVIINCDGFYLISLKGYFSQEVNISLHYQKDEEPLFQLKKVRSVNSLMVASLTYKDKVYLNVTTDNTSLDDFHVNGGELILIHQNPGEFCVLGGGSGGGQVSHRYPRIQSIKVQFTEYKKEKGFILTSQKEDEIMKVQNNSVIINCDGFYLISLKGYFSQEVNISLHYQKDEEPLFQLKKVRSVNSLMVASLTYKDKVYLNVTTDNTSLDDFHVNGGELILIHQNPGEFCVLGGGSGGGQVSHRYPRIQSIKVQFTEYKKEKGFILTSQKEDEIMKVQNNSVIINCDGFYLISLKGYFSQEVNISLHYQKDEEPLFQLKKVRSVNSLMVASLTYKDKVYLNVTTDNTSLDDFHVNGGELILIHQNPGEFCVLGGGGSGGGTGGGGSREGPELSPDDPAGLLDLRQGMFAQLVAQNVLLIDGPLSWYSDPGLAGVSLTGGLSYKEDTKELVVAKAGVYYVFFQLELRRVVAGEGSGSVSLALHLQPLRSAAGAAALALTVDLPPASSEARNSAFGFQGRLLHLSAGQRLGVHLHTEARARHAWQLTQGATVLGLFRVTPEIPAGLPSPRSEGGGGSGGGGSGGGGSREGPELSPDDPAGLLDLRQGMFAQLVAQNVLLIDGPLSWYSDPGLAGVSLTGGLSYKEDTKELVVAKAGVYYVFFQLELRRVVAGEGSGSVSLALHLQPLRSAAGAAALALTVDLPPASSEARNSAFGFQGRLLHLSAGQRLGVHLHTEARARHAWQLTQGATVLGLFRVTPEIPAGLPSPRSEGGGGSGGGGSGGGGSREGPELSPDDPAGLLDLRQGMFAQLVAQNVLLIDGPLSWYSDPGLAGVSLTGGLSYKEDTKELVVAKAGVYYVFFQLELRRVVAGEGSGSVSLALHLQPLRSAAGAAALALTVDLPPASSEARNSAFGFQGRLLHLSAGQRLGVHLHTEARARHAWQLTQGATVLGLFRVTPEIPAGLPSPRSE
notes: scDuokine from HEK293; VH leader left out; also called single-chain Duokine scOX40L-sc4-1BBL; not shown: N-terminal FLAG tag
Regarding B3, the binding result in the assay with CD40-Fc [1] and with CD27-Fc [4] was “no binding (tested: 100 nM (FIG. 10))” throughout. The “Receptor activation (EC50, nM)” value with 4-1BB receptor on cells turned out to be 2.83 nM; with OX40 receptor on cells, 0.56 nM. Besides, the half-maximal effective concentration (EC50) was determined as 4.61 nM with 4-1BB-Fc and 347 nM with OX40-Fc [6].
